T1: full length PEAK3 from insect cells (PEAK3^FL, S69 phosphorylated) (human, UniProt Q6ZS72 1-473, phosphoserine at 69; biotin (EZ-Link NHS-PEG4-Biotin) where immobilised for SPR)
T1 chain: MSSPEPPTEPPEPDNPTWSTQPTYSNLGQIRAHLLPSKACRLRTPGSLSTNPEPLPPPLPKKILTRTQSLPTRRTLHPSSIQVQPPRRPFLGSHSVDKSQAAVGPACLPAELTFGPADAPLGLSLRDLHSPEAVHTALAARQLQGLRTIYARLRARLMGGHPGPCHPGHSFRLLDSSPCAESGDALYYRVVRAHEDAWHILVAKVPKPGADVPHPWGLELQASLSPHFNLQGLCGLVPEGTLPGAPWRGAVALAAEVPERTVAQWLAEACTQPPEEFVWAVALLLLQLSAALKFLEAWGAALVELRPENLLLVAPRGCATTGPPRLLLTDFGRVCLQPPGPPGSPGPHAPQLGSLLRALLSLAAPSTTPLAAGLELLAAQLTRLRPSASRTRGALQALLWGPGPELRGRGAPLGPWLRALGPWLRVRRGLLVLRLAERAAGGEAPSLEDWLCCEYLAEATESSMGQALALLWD

T2: PEAK3^FL from insect cells, phosphorylated by Src (human, UniProt Q6ZS72 1-473, phosphotyrosine at 24 (by Src in vitro, MS/MS); phosphoserine at 69; biotin (EZ-Link NHS-PEG4-Biotin))
T2 chain: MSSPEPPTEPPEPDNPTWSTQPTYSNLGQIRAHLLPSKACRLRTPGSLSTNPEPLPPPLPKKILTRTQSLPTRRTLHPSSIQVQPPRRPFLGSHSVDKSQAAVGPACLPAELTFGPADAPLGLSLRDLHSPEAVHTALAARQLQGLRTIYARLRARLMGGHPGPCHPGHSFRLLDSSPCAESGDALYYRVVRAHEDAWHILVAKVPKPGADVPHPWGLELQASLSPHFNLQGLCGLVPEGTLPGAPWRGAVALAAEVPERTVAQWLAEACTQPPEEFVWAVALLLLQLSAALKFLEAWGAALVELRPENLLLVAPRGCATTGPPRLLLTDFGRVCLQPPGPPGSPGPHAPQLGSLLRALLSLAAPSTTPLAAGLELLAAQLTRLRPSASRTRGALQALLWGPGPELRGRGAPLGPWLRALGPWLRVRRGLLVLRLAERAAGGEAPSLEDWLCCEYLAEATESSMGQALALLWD

T3: PEAK2^IDR1 (human PEAK2 residues 802–1406) (human, UniProt Q86YV5 802-1406, phosphorylated at the tandem site 14-3-3 motif (RAA(pS)SP) as purified from insect cells; biotin (EZ-Link NHS-PEG4-Biotin) where immobilised for SPR)
T3 chain: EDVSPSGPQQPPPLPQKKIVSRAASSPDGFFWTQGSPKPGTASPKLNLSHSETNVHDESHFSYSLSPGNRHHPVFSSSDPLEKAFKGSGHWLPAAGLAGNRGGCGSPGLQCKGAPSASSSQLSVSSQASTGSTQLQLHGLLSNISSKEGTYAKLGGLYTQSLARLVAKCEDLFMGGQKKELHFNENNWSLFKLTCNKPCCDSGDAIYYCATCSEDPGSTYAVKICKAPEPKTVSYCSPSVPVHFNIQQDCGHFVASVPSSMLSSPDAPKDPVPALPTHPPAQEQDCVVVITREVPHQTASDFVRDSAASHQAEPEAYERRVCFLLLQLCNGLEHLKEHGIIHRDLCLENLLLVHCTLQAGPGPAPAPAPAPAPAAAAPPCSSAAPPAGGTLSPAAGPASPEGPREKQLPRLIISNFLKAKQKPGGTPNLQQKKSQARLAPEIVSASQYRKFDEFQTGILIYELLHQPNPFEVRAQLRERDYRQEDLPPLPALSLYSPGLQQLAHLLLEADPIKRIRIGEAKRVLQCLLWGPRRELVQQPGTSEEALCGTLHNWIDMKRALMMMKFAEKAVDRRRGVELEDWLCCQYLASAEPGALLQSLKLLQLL

T4: PEAK2^IDR1 phosphorylated by Src (human, UniProt Q86YV5 802-1406, treated with Src kinase in vitro, sites not stated; phosphorylated at the tandem site 14-3-3 motif (RAA(pS)SP) as purified; biotin (EZ-Link NHS-PEG4-Biotin))
T4 chain: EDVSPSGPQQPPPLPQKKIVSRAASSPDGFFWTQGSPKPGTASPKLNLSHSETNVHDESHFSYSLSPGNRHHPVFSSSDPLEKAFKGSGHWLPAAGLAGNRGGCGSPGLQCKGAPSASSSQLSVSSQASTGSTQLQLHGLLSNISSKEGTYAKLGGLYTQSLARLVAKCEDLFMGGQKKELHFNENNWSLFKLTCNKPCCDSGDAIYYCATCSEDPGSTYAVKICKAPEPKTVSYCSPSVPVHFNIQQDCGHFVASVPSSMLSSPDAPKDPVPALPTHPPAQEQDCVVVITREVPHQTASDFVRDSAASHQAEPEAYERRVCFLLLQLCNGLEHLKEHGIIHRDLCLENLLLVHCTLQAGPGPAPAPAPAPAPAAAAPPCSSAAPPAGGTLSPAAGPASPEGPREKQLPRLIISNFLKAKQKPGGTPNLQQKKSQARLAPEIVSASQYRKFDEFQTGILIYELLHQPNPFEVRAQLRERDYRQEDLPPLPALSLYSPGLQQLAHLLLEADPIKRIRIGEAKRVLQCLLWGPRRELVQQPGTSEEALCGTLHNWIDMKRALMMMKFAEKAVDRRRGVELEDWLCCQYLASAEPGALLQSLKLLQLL

T5: PEAK1^IDR1 phosphorylated by Src (human, UniProt Q9H792 1082-1746, phosphotyrosine at 1107 (by Src in vitro, MS/MS); biotin (EZ-Link NHS-PEG4-Biotin))
T5 chain: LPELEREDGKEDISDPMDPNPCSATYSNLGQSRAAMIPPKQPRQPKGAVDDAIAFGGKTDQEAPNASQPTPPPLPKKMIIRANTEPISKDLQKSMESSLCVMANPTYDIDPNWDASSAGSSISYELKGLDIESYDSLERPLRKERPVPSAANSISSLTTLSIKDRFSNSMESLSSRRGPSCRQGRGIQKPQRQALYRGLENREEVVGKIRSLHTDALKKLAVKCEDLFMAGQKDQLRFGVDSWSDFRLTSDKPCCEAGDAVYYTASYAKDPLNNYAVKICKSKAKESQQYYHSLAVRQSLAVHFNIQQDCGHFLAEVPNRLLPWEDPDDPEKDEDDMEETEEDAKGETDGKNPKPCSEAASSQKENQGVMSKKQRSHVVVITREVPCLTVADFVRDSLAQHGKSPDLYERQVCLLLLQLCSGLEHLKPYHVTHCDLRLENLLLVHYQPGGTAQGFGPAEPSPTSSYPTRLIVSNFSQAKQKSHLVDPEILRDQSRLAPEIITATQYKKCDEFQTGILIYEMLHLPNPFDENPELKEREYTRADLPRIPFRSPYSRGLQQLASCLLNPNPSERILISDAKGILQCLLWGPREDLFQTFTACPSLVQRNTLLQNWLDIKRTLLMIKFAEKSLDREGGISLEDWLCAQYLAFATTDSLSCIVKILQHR


Experiments:
Assay in all cases: SPR
[1] = biological target: T1, full length PEAK3 from insect cells …
[2] = biological target: T2, PEAK3^FL from insect cells, …
[3] = biological target: T3, PEAK2^IDR1 (human PEAK2 residues …)
[4] = biological target: T4, PEAK2^IDR1 phosphorylated by Src
[5] = biological target: T5, PEAK1^IDR1 phosphorylated by Src

| Kd [1] | Kd [2] | Kd [3] | Kd [4] | Kd [5] | Binder |
| --- | --- | --- | --- | --- | --- |
| 3.9 µM | 6.8 µM | 4.8 µM | – | – | CrkII NSH3 domain (CrkII^NSH3, residues 134–191) (domain or fragment) AEYVRALFDFNGNDEEDLPFKKGDILRIRDKPEEQWWNAEDSEGKRGMIPVPYVEKYR |
| – | < 1 µM | – | – | – | 14-3-3γ (natural protein) MVDREQLVQKARLAEQAERYDDMAAAMKNVTELNEPLSNEERNLLSVAYKNVVGARRSSWRVISSIEQKTSADGNEKKIEMVRAYREKIEKELEAVCQDVLSLLDNYLIKNCSETQYESKVFYLKMKGDYYRYLAEVATGEKRATVVESSEKAYSEAHEISKEHMQPTHPIRLGLALNYSVFYYEIQNAPEQACHLAKTAFDDAIAELDTLNEDSYKDSTLIMQLLRDNLTLWTSDQQDDDGGEGNN |
| – | – | – | 2.1 µM | – | full length CrkII, monomer (CrkII^FL monomer) (natural protein, biotin (EZ-Link NHS-PEG4-Biotin) where immobilised for SPR) MAGNFDSEERSSWYWGRLSRQEAVALLQGQRHGVFLVRDSSTSPGDYVLSVSENSRVSHYIINSSGPRPPVPPSPAQPPPGVSPSRLRIGDQEFDSLPALLEFYKIHYLDTTTLIEPVSRSRQGSGVILRQEEAEYVRALFDFNGNDEEDLPFKKGDILRIRDKPEEQWWNAEDSEGKRGMIPVPYVEKYRPASASVSALIGGNQEGSHPQPLGGPEPGPYAQPSVNTPLPNLQNGPIYARVIQKRVPNAYDKTALALEVGELVKVTKINVSGQWEGECNGKRGHFPFTHVRLLDQQNPDEDFS |
| – | – | – | 1.4 µM | – | full length CrkII, dimer (CrkII^FL dimer) (natural protein, biotin (EZ-Link NHS-PEG4-Biotin) where immobilised for SPR) MAGNFDSEERSSWYWGRLSRQEAVALLQGQRHGVFLVRDSSTSPGDYVLSVSENSRVSHYIINSSGPRPPVPPSPAQPPPGVSPSRLRIGDQEFDSLPALLEFYKIHYLDTTTLIEPVSRSRQGSGVILRQEEAEYVRALFDFNGNDEEDLPFKKGDILRIRDKPEEQWWNAEDSEGKRGMIPVPYVEKYRPASASVSALIGGNQEGSHPQPLGGPEPGPYAQPSVNTPLPNLQNGPIYARVIQKRVPNAYDKTALALEVGELVKVTKINVSGQWEGECNGKRGHFPFTHVRLLDQQNPDEDFS |
| – | 48.5 µM | – | 20.7 µM | 12.5 µM | CrkII SH2 domain (CrkII^SH2, residues 6–120) (domain or fragment, biotin (EZ-Link NHS-PEG4-Biotin) where immobilised for SPR) DSEERSSWYWGRLSRQEAVALLQGQRHGVFLVRDSSTSPGDYVLSVSENSRVSHYIINSSGPRPPVPPSPAQPPPGVSPSRLRIGDQEFDSLPALLEFYKIHYLDTTTLIEPVSR |
